Results published in article PMC6780499, “Characterization, Recombinant Production and Structure-Function Analysis of NvCI, A Picomolar Metallocarboxypeptidase Inhibitor from the Marine Snail Nerita versicolor” (Marine Drugs, 2019).
No end group written: not given here.

Tested on: HepG2 cells
Test: Cytotoxicity, XTT assay
Format: cell-based, human
Conditions: 72 h incubation, 2 to 250 µg/ml, three independent experiments
Protocol: Cytotoxicity effect of NvCI was tested in a cell culture system using the human hepatocyte cell line HepG2 (American Type Culture Collection (ATCC)). The cells were grown in Dulbecco’s modified Eagle’s medium (DMEM) medium supplemented with 10% (v/v) heat inactivated fetal bovine serum, 2 mM glutamine (Life Technologies Inc.), in a highly humidified atmosphere of 90% air with 10% CO2 at 37 °C. Growth inhibitory effect was measured by the microculture tetrazolium [2,3-bis-(2-methoxy-4-nitro-5-sulfophenyl)-2H-tetrazolium-5-carboxanilide, XTT] assay. Following the addition of different inhibitor concentrations to quadruplicate wells, plates were incubated at 37 °C for 72 h. Aliquots of 20 µl of XTT solution were then added to each well. After 3 h, the color formed was quantitated by a spectrophotometric plate reader (PerkinElmer Victor3 V) at a wavelength of 490 nm. Cell viability was expressed as a percentage of the control level.
Cell viability of HepG2 cells after 72 h incubation with NvCI at various concentrations (2 to 250 µg/ml). Untreated cells were used as controls. Data represent the mean and standard error of the mean (SEM) of three independent experiments.

## NvCI: 53-residue, three-disulphide proteinaceous metallocarboxypeptidase inhibitor from the marine snail Nerita versicolor; major isoform; UniProt P86912 (FHVPDDRPCINPGRCPLVPDATCTFVCKAADNDFGYECQHVWTFEGQRVGCYA; disulfide (positions not given here); also: three disulphides, pairing not given here; UniProt P86912 1-53, looked up)
  cytotoxicity / cell viability: None of the NvCI concentrations assayed exhibited substantial cytotoxicity
